Experimental data from publication PMC5027573, “Structural Analysis of the Hg(II)-Regulatory Protein Tn501 MerR from Pseudomonas aeruginosa” (Scientific Reports, 2016).

Molecular target: the molecule itself
Assay: crystal structure; Hg(II)-bound truncated MerR (equimolar HgCl2); sitting-drop vapor diffusion at 16 °C, 0.1 M KCl, 0.01 M MgCl2, 0.1 M Tris pH 8.5, 30% PEG200; space group P3(1)21, one dimer in the asymmetric unit; Hg SAD, 2.8 Å

B1: C-terminal truncated Tn501 MerR (MerRTC10), mercury(II)-bound (domain or fragment, Pseudomonas aeruginosa, UniProt P0A183 1-134, looked up)
chain: MENNLENLTIGVFAKAAGVNVETIRFYQRKGLLLEPDKPYGSIRRYGEADVTRVRFVKSAQRLGFSLDEIAELLRLEDGTHCEEASSLAEHKLKDVREKMADLARMEAVLSELVCACHARRGNVSCPLIASLQG
notes: Mercuric resistance operon regulatory protein MerR of transposon Tn501, Pseudomonas aeruginosa; the last ten C-terminal residues were truncated; synthesized and codon-optimized merR gene; also called Hg2+-MerR; C-terminally truncated Tn501 MerR; source: E. coli BL21 (DE3), pET-30a, purified (HiTrap Phenyl FF, HisTrap HF, Superdex200 gel filtration)
Q: B1 was tested. Which “stoichiometry N” value did it give?
A: 2
